From patent US9309320 come the findings set out here.

The target in this test is murine CD95L, endogenous in SMA-560 tumor explants (murine) (UniProt P41047). Nature of the test: cell-based or functional assay.
Sequence of UniProt P41047 (P41047 whole entry): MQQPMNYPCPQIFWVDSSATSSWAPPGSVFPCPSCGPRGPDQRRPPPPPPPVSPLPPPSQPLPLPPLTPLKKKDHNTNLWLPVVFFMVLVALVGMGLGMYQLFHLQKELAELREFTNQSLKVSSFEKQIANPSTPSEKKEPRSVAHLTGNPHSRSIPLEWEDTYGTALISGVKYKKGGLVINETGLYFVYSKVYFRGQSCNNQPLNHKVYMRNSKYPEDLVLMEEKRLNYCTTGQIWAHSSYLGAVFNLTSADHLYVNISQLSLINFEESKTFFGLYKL

“MFL3, anti murine-CD95L neutralizing antibody” yielded a decrease in migration of cells out of SMA-560 tumor explants into collagen of 50%.
